Article PMC7176140, “Thermal stability analyses of human PERIOD-2 C-terminal domain using dynamic light scattering and circular dichroism” (PLoS ONE, 2020)

Biological target: the molecule itself
Assay: SEC; analytical Superdex 200 Increase 10/300 GL; hPER2c dimer fraction treated with 20mM DTT for 36hrs; buffer 20mM Tris-base pH7.5, 50mM NaCl, 20mM DTT; calibrated with molecular weight standards

B1: human PERIOD-2 C-terminal domain (recombinant hPER2c, residues 1130 to 1252) (domain or fragment, UniProt O15055 1130-1252, looked up)
chain: CVLQDPIWLLMADADSSVMMTYQLPSRNLEAVLKEDREKLKLLQKLQPRFTESQKQELREVHQWMQTGGLPAAIDVAECVYCENKEKGNICIPYEEDIPSLGLSEVSDTKEDENGSPLNHRIE
notes: C-terminal domain of human PER2 (PERIOD-2), residues 1130 to 1252; Elutes from SEC as an aggregated form, 40mer, 20mer and dimer; The authors conclude that disulfide bonds stabilise the dimer; No tag removal is described; also called human PER2c; not shown: His tag (from the vector pCold I)
For B1, which “stoichiometry N” value is on record?
The value was 6.
